Measured values: the Immune Epitope Database (IEDB)

Tests used:
Assay in all cases: IEDB peptide-MHC binding, purified MHC/competitive/radioactivity; filed as Kd, often an IC50 or EC50 that approximates it; ≥ and ≤ were set here for values at or beyond the usual limits of such assays
HLA-A*03:01 = target: HLA-A*03:01
HLA-A*11:01 = target: HLA-A*11:01
HLA-A*31:01 = target: HLA-A*31:01
HLA-A*33:01 = target: HLA-A*33:01
HLA-A*68:01 = target: HLA-A*68:01
[1] = source organism: Vaccinia virus WR
[2] = source organism: Dengue virus 4 Philippines/H241/1956
[3] = source organism: SARS coronavirus Tor2
[4] = source organism: Dengue virus 1 Brazil/97-11/1997
[5] = source organism: Dengue virus 2 Jamaica/1409/1983
[6] = source organism: Mammarenavirus machupoense
[7] = source organism: Dengue virus 2 Peru/IQT2913/1996
[8] = source organism: Vaccinia virus Copenhagen

| Sequence | Kd (HLA-A*03:01; [1]) [nM] | Kd (HLA-A*11:01; [1]) [nM] | Kd (HLA-A*31:01; [1]) [nM] | Kd (HLA-A*33:01; [1]) [nM] | Kd (HLA-A*68:01; [1]) [nM] | other results |
| --- | --- | --- | --- | --- | --- | --- |
| AALFMYYAKR | 312 | 178 | 16.8 | 837 | 33.1 | – |
| AIKILTGFRK | – | – | – | – | – | Kd (HLA-A*03:01; [2]): 103 nM; Kd (HLA-A*11:01; [2]): 1760 nM |
| AITPTIEDDK | 487 | 115 | ≥ 47900 | ≥ 42600 | 6640 | – |
| ALLSTDGNK | – | – | – | – | – | Kd (HLA-A*03:01; [3]): 52.5 nM; Kd (HLA-A*11:01; [3]): 494 nM; Kd (HLA-A*31:01; [3]): 10200 nM; Kd (HLA-A*33:01; [3]): ≥ 77700 nM; Kd (HLA-A*68:01; [3]): ≥ 23700 nM |
| ATKIIALNK | – | – | – | – | – | Kd (HLA-A*03:01; [3]): 1360 nM; Kd (HLA-A*11:01; [3]): 334 nM; Kd (HLA-A*31:01; [3]): 840 nM; Kd (HLA-A*33:01; [3]): ≥ 77700 nM; Kd (HLA-A*68:01; [3]): 15900 nM |
| ATMLEYVRY | 1700 | 23.5 | 3410 | ≥ 77700 | ≥ 29400 | – |
| ATTVITPMMR | – | – | – | – | – | Kd (HLA-A*11:01; [4]): 141 nM; Kd (HLA-A*31:01; [4]): 125 nM; Kd (HLA-A*68:01; [4]): 368 nM |
| AVHDFFKFR | – | – | – | – | – | Kd (HLA-A*03:01; [3]): 7140 nM; Kd (HLA-A*11:01; [3]): 7.56 nM; Kd (HLA-A*31:01; [3]): 4.9 nM; Kd (HLA-A*33:01; [3]): 273 nM; Kd (HLA-A*68:01; [3]): 11.3 nM |
| AVILQNAWK | – | – | – | – | – | Kd (HLA-A*11:01; [5]): 128 nM |
| AVLMHKGKR | – | – | – | – | – | Kd (HLA-A*31:01; [5]): 64.7 nM |
| CVDIPGIPK | – | – | – | – | – | Kd (HLA-A*03:01; [3]): 149 nM; Kd (HLA-A*11:01; [3]): 19.9 nM; Kd (HLA-A*31:01; [3]): ≥ 10000 nM; Kd (HLA-A*33:01; [3]): ≥ 37900 nM; Kd (HLA-A*68:01; [3]): 102 nM |
| DFYDFAVSK | – | – | – | – | – | Kd (HLA-A*03:01; [3]): 4110 nM; Kd (HLA-A*11:01; [3]): 8940 nM; Kd (HLA-A*31:01; [3]): 12400 nM; Kd (HLA-A*33:01; [3]): 9.36 nM; Kd (HLA-A*68:01; [3]): 56.9 nM |
| DIICEDAMY | ≥ 78000 | ≥ 77900 | ≥ 77900 | ≥ 20200 | 4550 | – |
| DLIVTFRER | 12700 | 8140 | 509 | 14.8 | 19.8 | – |
| DSIPISELSR | ≥ 44900 | 986 | 4140 | 25.5 | 12.3 | – |
| EIITGNKVK | ≥ 78000 | 1200 | ≥ 77900 | ≥ 77700 | 233 | – |

| Sequence | Kd (HLA-A*03:01; [1]) [nM] | Kd (HLA-A*11:01; [1]) [nM] | Kd (HLA-A*31:01; [1]) [nM] | Kd (HLA-A*33:01; [1]) [nM] | Kd (HLA-A*68:01; [1]) [nM] | other results |
| --- | --- | --- | --- | --- | --- | --- |
| EMVDELVTRK | ≥ 70100 | 8710 | ≥ 70000 | ≥ 70000 | 1210 | – |
| EWMLIAAKMK | – | – | – | – | – | Kd (HLA-A*03:01; [6]): 5950 nM; Kd (HLA-A*11:01; [6]): ≥ 24100 nM; Kd (HLA-A*31:01; [6]): 1260 nM; Kd (HLA-A*33:01; [6]): 49 nM; Kd (HLA-A*68:01; [6]): 3530 nM |
| FTDISMSLYK | 55.9 | 8.84 | 9320 | 4210 | 24.9 | – |
| FVASFRLFAR | – | – | – | – | – | Kd (HLA-A*03:01; [3]): 94.2 nM; Kd (HLA-A*11:01; [3]): 50 nM; Kd (HLA-A*31:01; [3]): 6.64 nM; Kd (HLA-A*33:01; [3]): 14.1 nM; Kd (HLA-A*68:01; [3]): 0.106 nM |
| FVCKHSMVDR | – | – | – | – | – | Kd (HLA-A*31:01; [7]): 117 nM; Kd (HLA-A*33:01; [7]): 122 nM; Kd (HLA-A*68:01; [7]): 1050 nM |
| GILKKLSSIK | 13.9 | 375 | 5480 | ≥ 70000 | ≥ 20100 | – |
| GLLFRRLTSR | – | – | – | – | – | Kd (HLA-A*03:01; [4]): 170 nM; Kd (HLA-A*31:01; [4]): ≥ 53700 nM |
| GLTTHCTKLR | 5180 | 4630 | 511 | 4210 | 12100 | – |
| GSTAEQLSK | 307 | 14 | ≥ 77900 | ≥ 77700 | ≥ 43000 | – |
| GVIADYNYK | – | – | – | – | – | Kd (HLA-A*03:01; [3]): 23.8 nM; Kd (HLA-A*11:01; [3]): 5.97 nM; Kd (HLA-A*31:01; [3]): 126 nM; Kd (HLA-A*33:01; [3]): 4910 nM; Kd (HLA-A*68:01; [3]): 72 nM |
| HINALEYIIK | 117 | 87.9 | 1520 | 200 | 35.9 | – |
| IAVSTANIFR | – | – | – | – | – | Kd (HLA-A*33:01; [2]): 1050 nM; Kd (HLA-A*68:01; [2]): 9.46 nM |
| IFAFIDFSK | – | – | – | – | – | Kd (HLA-A*03:01; [8]): 78.2 nM; Kd (HLA-A*11:01; [8]): 20.5 nM; Kd (HLA-A*31:01; [8]): 251 nM; Kd (HLA-A*33:01; [8]): 42.6 nM; Kd (HLA-A*68:01; [8]): 8.56 nM |
| IFREIASSMK | 198 | 1570 | 425 | 467 | 3470 | – |
| IITPVVFYR | 59.2 | 0.322 | 1.08 | 6.62 | 0.0181 | – |
